Test results reported in PMC6779467, “Cytoplasmic protein misfolding titrates Hsp70 to activate nuclear Hsf1” (eLife, 2019).

B1: Ssa1 (6xHis-SUMO tag cleaved with Ulp1) (natural protein)
chain: not shown
notes: Hsp70 Ssa1, S. cerevisiae; Same construct as m2 after cleavage of the tag with Ulp1 SUMO protease; also called Hsp70; Hsp70 Ssa1; source: E. coli BL21-SI/pCodonPlus with pCA1026, coexpressed with Hsf1-StrepTag II and Sis1; purified (Ni-IDA, Ulp1 cleavage, Strep-Tactin Sepharose through Hsf1); not shown: 6xHis-SUMO, N-terminal, cleaved
B2: Hsf1-StrepTag II (natural protein, S. cerevisiae, UniProt P10961 1-833, looked up)
chain: MNNAANTGTTNESNVSDAPRIEPLPSLNDDDIEKILQPNDIFTTDRTDASTTSSTAIEDIINPSLDPQSAASPVPSSSFFHDSRKPSTSTHLVRRGTPLGIYQTNLYGHNSRENTNPNSTLLSSKLLAHPPVPYGQNPDLLQHAVYRAQPSSGTTNAQPRQTTRRYQSHKSRPAFVNKLWSMLNDDSNTKLIQWAEDGKSFIVTNREEFVHQILPKYFKHSNFASFVRQLNMYGWHKVQDVKSGSIQSSSDDKWQFENENFIRGREDLLEKIIRQKGSSNNHNSPSGNGNPANGSNIPLDNAAGSNNSNNNISSSNSFFNNGHLLQGKTLRLMNEANLGDKNDVTAILGELEQIKYNQIAISKDLLRINKDNELLWQENMMARERHRTQQQALEKMFRFLTSIVPHLDPKMIMDGLGDPKVNNEKLNSANNIGLNRDNTGTIDELKSNDSFINDDRNSFTNATTNARNNMSPNNDDNSIDTASTNTTNRKKNIDENIKNNNDIINDIIFNTNLANNLSNYNSNNNAGSPIRPYKQRYLLKNRANSSTSSENPSLTPFDIESNNDRKISEIPFDDEEEEETDFRPFTSRDPNNQTSENTFDPNRFTMLSDDDLKKDSHTNDNKHNESDLFWDNVHRNIDEQDARLQNLENMVHILSPGYPNKSFNNKTSSTNTNSNMESAVNVNSPGFNLQDYLTGESNSPNSVHSVPSNGSGSTPLPMPNDNDTEHASTSVNQGENGSGLTPFLTVDDHTLNDNNTSEGSTRVSPDIKFSATENTKVSDNLPSFNDHSYSTQADTAPENAKKRFVEEIPEPAIVEIQDPTEYNDHRLPKRAKK
notes: Hsf1, S. cerevisiae; HSF1 amplified with primers from the start codon to the last codon before the tag; also called Heat shock factor 1; yeast Hsf1; source: E. coli BL21-SI/pCodonPlus with pCA1026, coexpressed with 6xHis-SUMO-Ssa1 and Sis1; purified (Ni-IDA, Strep-Tactin Sepharose); not shown: Strep Tag II, C-terminal, kept

Experiments:
Hsf1-StrepTag II = biological target: B2; assay: pull-down; coexpression in E. coli; tandem affinity purification: Ni-IDA (6xHis-SUMO on Ssa1), Ulp1 cleavage, Strep-Tactin Sepharose (StrepTag II on Hsf1), elution with desthiobiotin; LWB150 (40 mM HEPES-KOH pH 7.5, 150 mM NaCl, 5 mM MgCl2, 5% glycerol); stoichiometry by densitometry of a Coomassie stained gel; details: partners not purified
[1] = biological target: the molecule itself; assay: SEC; 500 ul of 2 mg/ml purified complex on HiLoad 16/600 Superdex200 pg, 1 mL/min, LWB150

| stoichiometry N (Hsf1-StrepTag II) | Binder | binding result [1] |
| --- | --- | --- |
| 3 Hsf1 per Ssa1 | B1 | – |
| – | B2 | binds |
